B1: ΔPGL mutant (p.P2643_L2645del) of the FLNC fragment containing immunoglobulin-like domains 22-24 (domain or fragment, human, UniProt Q14315 2403-2725, looked up)
chain: SLSDDARRLTVTSLQETGLKVNQPASFAVQLNGARGVIDARVHTPSGAVEECYVSELDSDKHTIRFIPHENGVHSIDVKFNGAHIPGSPFKIRVGEQSQAGDPGLVSAYGPGLEGGTTGVSSEFIVNTLNAGSGALSVTIDGPSKVQLDCRECPEGHVVTYTPMAPGNYLIAIKYGGPQHIVGSPFKAKVTGPRLSGGHSLHETSTVLVETVTKSSSSRGSSYSSIPKFSSDASKVVTRGSQAFVGQKNSFTVDCSKAGTNMMMVGVHGPKTPCEEVYVKHMGNRVYNVTYTVKEKGDYILIVKWGDESVPGSPFKVKVP
notes: human filamin C (FLNC), Uniprot Q14315, residues 2403-2725, with deletion of the tripeptide 2643-PGL-2645 (mutation associated with restrictive cardiomyopathy); also called ΔPGL FLNC; c.7927_7935del; source: recombinant, expressed and purified as described earlier [23]; (ion-exchange and size-exclusion chromatography)
B2: EN/D mutant (p.Glu2472_Asn2473delinsAsp) of the FLNC fragment containing immunoglobulin-like domains 22-24 (domain or fragment, human, UniProt Q14315 2403-2725, looked up)
chain: SLSDDARRLTVTSLQETGLKVNQPASFAVQLNGARGVIDARVHTPSGAVEECYVSELDSDKHTIRFIPHDGVHSIDVKFNGAHIPGSPFKIRVGEQSQAGDPGLVSAYGPGLEGGTTGVSSEFIVNTLNAGSGALSVTIDGPSKVQLDCRECPEGHVVTYTPMAPGNYLIAIKYGGPQHIVGSPFKAKVTGPRLSGGHSLHETSTVLVETVTKSSSSRGSSYSSIPKFSSDASKVVTRGPGLSQAFVGQKNSFTVDCSKAGTNMMMVGVHGPKTPCEEVYVKHMGNRVYNVTYTVKEKGDYILIVKWGDESVPGSPFKVKVP
notes: human filamin C (FLNC), Uniprot Q14315, residues 2403-2725, with Glu2472 and Asn2473 replaced by Asp (mutation associated with restrictive cardiomyopathy); also called c.7416_7418delGAA; source: recombinant, expressed and purified as described earlier [23]; (ion-exchange and size-exclusion chromatography)
B3: wild-type (WT) C-terminal fragment of human filamin C (FLNC) containing immunoglobulin-like domains 22-24 (domain or fragment, UniProt Q14315 2403-2725, looked up)
chain: SLSDDARRLTVTSLQETGLKVNQPASFAVQLNGARGVIDARVHTPSGAVEECYVSELDSDKHTIRFIPHENGVHSIDVKFNGAHIPGSPFKIRVGEQSQAGDPGLVSAYGPGLEGGTTGVSSEFIVNTLNAGSGALSVTIDGPSKVQLDCRECPEGHVVTYTPMAPGNYLIAIKYGGPQHIVGSPFKAKVTGPRLSGGHSLHETSTVLVETVTKSSSSRGSSYSSIPKFSSDASKVVTRGPGLSQAFVGQKNSFTVDCSKAGTNMMMVGVHGPKTPCEEVYVKHMGNRVYNVTYTVKEKGDYILIVKWGDESVPGSPFKVKVP
notes: human filamin C (FLNC), Uniprot Q14315, immunoglobulin-like domains 22-24, amino acid residues 2403-2725; Dimer by SEC and cross-linking; also called WT FLNC; WT FLNC fragment; source: recombinant, expressed and purified as described earlier [23]; (ion-exchange and size-exclusion chromatography)

Legend:
[1] = biological target: the molecule itself; assay: cross-linking; isolated proteins or equimolar mixture, 30 min at 30 °C in 25 mM HEPES/NaOH pH 7.4, 100 mM NaCl, 2 mM DTT, then 0.0125% glutaraldehyde 30 min at 30 °C; SDS gel and anti-HspB7 immunoblot
[2] = biological target: T1, small heat shock protein HspB7 (full-size) (UniProt Q9UBY9 1-170); assay: native gel or EMSA; fixed HspB7 (25 or 30 µM) or AcdB7 (35 µM) in 20 mM Tris-acetate pH 7.6, 100 mM NaCl titrated with 0-120 µM FLNC fragment, 30 min at 30 °C; native 12.5% polyacrylamide gel, Tris-glycine pH 8.6; band intensities, semi quantitative, apparent affinity; conditions: both partners purified
T1 construct: small heat shock protein HspB7, full-size; also called full-size HspB7; full-length HspB7; source: recombinant, expressed and purified as described earlier [25,34]

[3] = biological target: T2, α-crystallin domain of HspB7 (AcdB7) containing residues 77-155 (UniProt Q9UBY9 77-155); assay: as above; conditions: both partners purified
T2 construct: small heat shock protein HspB7, α-crystallin domain, residues 77-155; source: recombinant, expressed and purified as described earlier [25,34]

[4] = biological target: the molecule itself; assay: SEC; isolated FLNC fragments, 0.1 mg in 100 µL, Superdex 200 10/300, 0.5 mL/min, 50 mM Na-phosphate pH 7.4, 150 mM NaCl, 0.1 mM EDTA, 0.1 mM PMSF, 2 mM DTT, room temperature; apparent molecular weights from column calibration

T1 sequence (Q9UBY9 whole entry, the tested form may be a part): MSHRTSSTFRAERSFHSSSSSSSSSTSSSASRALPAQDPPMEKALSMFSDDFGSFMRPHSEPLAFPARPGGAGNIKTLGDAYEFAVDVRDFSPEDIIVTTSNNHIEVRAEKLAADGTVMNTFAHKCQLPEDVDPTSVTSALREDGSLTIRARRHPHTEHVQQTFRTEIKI
T2 sequence (Q9UBY9 77-155): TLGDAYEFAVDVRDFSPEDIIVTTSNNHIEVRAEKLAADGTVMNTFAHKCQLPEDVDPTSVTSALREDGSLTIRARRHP

| Binder | stoichiometry N [1] | EC50 [2] | stoichiometry N [2] | EC50 [3] | stoichiometry N [3] | stoichiometry N [4] |
| --- | --- | --- | --- | --- | --- | --- |
| B1 | 2 |  |  |  |  |  |
| B2 |  | ~10 µM | 2 HspB7/FLNC | ~20 µM | 1 | 2 |
| B3 |  | ~10 µM | 2 HspB7/FLNC | ~20 µM | 1 | 2 |

— PMC12193154, “Effect of Mutations in the C-Terminal 22–24 Domains of Filamin C Associated with Cardio- and Myopathies on Its Interaction with Small Heat Shock Protein HspB7” (International Journal of Molecular Sciences, 2025)
